Laboratory results reported in article PMC4222275, “Biochemical and functional characterization of SpdA, a 2′, 3′cyclic nucleotide phosphodiesterase from Sinorhizobium meliloti” (BMC Microbiology, 2013).

Substrate: Nc1ncnc2c1ncn2[C@@H]1O[C@H](CO)[C@H]2OP(=O)(O)O[C@H]21
Assay: phosphate release with calf intestine phosphatase, Biomol Green
Assay type: biochemical, Sinorhizobium meliloti
Conditions: 50 mM Tris-HCl pH 8, 5 mM beta-mercaptoethanol, 10 mM NaCl, 25 °C, 1 μM SpdA

B1: SpdA (Sinorhizobium meliloti 1021) (protein)
chain: MTKLIIFSDLHMVPEGETIIGLDPYRRLANGIAHVNRYHADADRVIFAGDLTHRADRASYERLKALLGELTPPAALMIGNHDRRDVFLDVFAEATTDANGFVQQVLDFADCRAILLDTLFAPPYDYPVSHAGHLCDRRLAWLDRQLEEAGGRPALIFMHHPPHISGFAGIDMIRLVNEDDFYALVKRHGNVRHIFAGHVHRTISGSSRGIPFSIFKSPVHQQPMPFDTADASLSVDEPAAYGIALVTGDGVLVHTEDYEIARRDAVGA
notes: C-terminal His6 tag (pET-22b, NdeI-HindIII), tag kept, E. coli BL21(DE3), monomer, metal-free
Question: What does the source list for B1?
Answer: Km: 3.7 mM; kcat: 2 s⁻¹
